This series relates to ZAP-S. Briefly: MST.

Results on 1 substance are retold here after article doi:10.1101/2021.05.31.445667.

On to SARS-CoV-2 -1PRF pseudoknot RNA (WT), for which the Kd (as a rule, the equilibrium constant for the complex coming apart) is 121 nM.
